For this assay, the target named is T1, Kv2.1 surface clusters (Rattus norvegicus, UniProt P15387).
T1 construct: expressed in transfected cells; host or cells: primary rat cortical neurons (E16-17 Sprague-Dawley), Lipofectamine 2000
T1 sequence (P15387 1-857): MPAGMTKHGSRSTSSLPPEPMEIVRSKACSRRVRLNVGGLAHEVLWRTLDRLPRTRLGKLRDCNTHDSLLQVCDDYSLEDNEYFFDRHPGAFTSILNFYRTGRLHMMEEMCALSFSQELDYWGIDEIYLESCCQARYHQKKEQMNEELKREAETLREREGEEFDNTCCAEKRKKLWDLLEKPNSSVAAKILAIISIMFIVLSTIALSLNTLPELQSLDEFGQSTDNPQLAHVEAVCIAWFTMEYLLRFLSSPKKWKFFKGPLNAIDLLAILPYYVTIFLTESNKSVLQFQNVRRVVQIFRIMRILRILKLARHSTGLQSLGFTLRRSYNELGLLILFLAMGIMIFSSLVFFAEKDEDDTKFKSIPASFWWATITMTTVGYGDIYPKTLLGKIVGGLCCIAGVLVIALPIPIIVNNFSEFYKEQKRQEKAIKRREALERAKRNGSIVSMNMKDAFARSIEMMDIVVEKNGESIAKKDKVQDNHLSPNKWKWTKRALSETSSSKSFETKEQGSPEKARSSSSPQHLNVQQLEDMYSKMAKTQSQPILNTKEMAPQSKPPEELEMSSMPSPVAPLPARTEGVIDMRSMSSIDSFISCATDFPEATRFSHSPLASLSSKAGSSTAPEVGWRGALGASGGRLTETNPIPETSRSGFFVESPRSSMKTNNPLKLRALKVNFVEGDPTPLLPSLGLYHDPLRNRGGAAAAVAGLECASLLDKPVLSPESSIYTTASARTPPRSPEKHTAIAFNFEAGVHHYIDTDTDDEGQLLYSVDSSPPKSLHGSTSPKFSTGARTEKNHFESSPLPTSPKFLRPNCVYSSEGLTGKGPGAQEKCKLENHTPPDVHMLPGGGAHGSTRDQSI
As to the kind of experiment: Kv2.1 surface cluster density in live Kv2.1-GFP-transfected cortical neurons treated with TAT-linked peptides. It counts as cell-based. The protocol:
In vitro experiments utilized primary cortical neuronal cultures prepared from embryonic day 16-17 Sprague-Dawley rats of either sex in a protocol described previously (McCord et al., J Physiol (Lond). 592: 3511-3521, 2014). Timed-pregnant rats (Charles River Laboratories, Wilmington, Mass.) were sacrificed by CO2 inhalation. Embryonic cortices were dissociated with trypsin (0.6 mg/mL) and cells plated in sterile 6-well plates on poly-L-ornithine-coated glass coverslips at a density of 670,000 cells per well. Cytosine arabinoside (1-2 μM) was utilized to inhibit non-neuronal proliferation on day 14 in vitro (DIV); cultures were utilized at 21-25 DIV.
; Invitrogen, Carlsbad, Calif.). […]; Thermo Fisher Scientific, Waltham, Mass.). […]. Cultures were utilized 18-24 hours following transfection. cDNA amounts for each transfection experiment are described below for each figure. FIG. 1: 0.375 μg/well Kv2.1-GFP plasmid, 0.495 μg/well pcDNA3 vector plasmid, and 0.63 μg/well of either DP-1 or Sc-1, or Kv2.2 CT-expressing plasmid. FIGS. 2, 8, 9, 10, 12: 0.375 μg/well Kv2.1-GFP plasmid, 0.15 μg/well tdTomato plasmid (from Gerhart Ryffel; Addgene plasmid #30530), and 0.975 μg/well pcDNA3 vector plasmid.
To analyze Kv2.1 distribution in live primary cortical neurons, cells were transfected with both a tdTomato construct and a GFP-tagged Kv2.1 construct (O'Connell, et al., J Neurosci. 26: 9609-9618, 2006) and imaged on a Nikon A1+ confocal microscope (Nikon, Tokyo, Japan). Cells were chosen at random by looking only at the tdTomato signal (561 nm), in order to avoid bias. At least three separate culture dates were used per experiment and three coverslips were transfected per condition each time. For these experiments, “n” refers to the total number of cells imaged. Five to 15 optical sections (0.5 μm) capturing the cell surface were obtained of single cells at 60× magnification (Schulien et al., J Physiol (Lond). 594: 2647-2659, 2016), creating a maximum-intensity projection (MAX-IP) of Kv2.1-GFP distribution. To analyze Kv2.1 distribution in the cerebral cortex of fixed brain slices, 51-54 image fields were obtained at 60× magnification across 18 sections from three fixed mouse brains per treatment (total of 6 animals). Image fields were captured by first focusing on an area of superficial cortex closest to the cover glass. Next, 24 optical sections (0.5 μm) were obtained moving deeper into the tissue in order to produce a 12 μm maximum-intensity projection for analysis of Kv2.1 distribution. Laser power, HV (gain), offset, pinhole size, and all camera parameters were kept identical between all samples in a given experiment. Nikon Instruments Software Advanced Research (NIS-Elements AR) was utilized to analyze GFP-tagged Kv2.1 channel cluster distribution. For live images of transfected neurons, object count parameters were customized to define a Kv2.1 cluster as an area of high intensity GFP fluorescence (compared to background), measuring 0.05 μm^2 or larger (Schulien et al., J Physiol (Lond). 594: 2647-2659, 2016). Kv2.1 cluster density was calculated by normalizing the number of Kv2.1 clusters counted to the somatic area of each neuron (#Kv2.1 clusters/μm^2). Due to high variability in GFP-Kv2.1 expression between individual neurons, intensity thresholding required cell-specific local-background subtraction. In each neuron analyzed, two populations on Kv2.1-GFP expression were first noted—(a) highly localized signals of clustered Kv2.1 channels, and (b) diffuse background staining that represents freely-dispersed, conducting Kv2.1 channels on the plasma membrane. A small region of interest (ROI) within region (b) was set as the background subtraction standard of the image, creating an optimal signal-to-noise ratio for clustered Kv2.1 channels. […]

The mark [1] stands for this setting: 3 μM peptide, two-hour treatment, mean±SEM (FIG. 2B).
Setting [2] is: 10 μM peptide, two-hour treatment, mean±SEM (FIG. 2B).

Turning to “YGRKKRRQRRRDFSSIST [TAT-Sc-2, TAT-linked scramble control peptide]”, the “mean Kv2.1 surface cluster density” value under setting [1] is on record as 0.15±0.01 #Kv2.1 clusters/μm^2 of neuronal soma and the “mean Kv2.1 surface cluster density” value under setting [2] was 0.16±0.02 #Kv2.1 clusters/μm^2 of neuronal soma.
As for “YGRKKRRQRRRSIDSFTS [TAT-DP-2, TAT-linked declustering peptide 2]”, the “mean Kv2.1 surface cluster density” value under setting [1] is on record as 0.07±0.02 #Kv2.1 clusters/μm^2 of neuronal soma; the “mean Kv2.1 surface cluster density” value under setting [2] is listed as 0.08±0.01 #Kv2.1 clusters/μm^2 of neuronal soma; the “mean Kv2.1 surface cluster density” value (10 μM, 2 h after initiation of treatment, mean+/-SEM (FIG. 9)) is on record as 0.06±0.01 #Kv2.1 clusters/μm^2 of neuronal soma; the “mean Kv2.1 surface cluster density” value (10 μM, 24 h after initiation of treatment, peptide removed after two hours, mean+/-SEM (FIG. 9)) is given as 0.09±0.01 #Kv2.1 clusters/μm^2 of neuronal soma. Further, the “time-course of Kv2.1 surface cluster dispersal” value (10 μM, before, 60 and 120 minutes post-treatment (FIG. 8)) is “time-dependent”. Where the note is “hypothesized from the 3 μM and 10 μM results”, the “concentrations at which effective as in vitro declustering tool” value lay within 3 to 10 µM.

For the origin of these results see patent US11673916B2, “Neuroprotective peptides and methods of their use” (University of Pittsburgh—Of the Commonwealth System of …, priority 2020, dated 2023).
